Data published in PMC10798628.

Columns and labels:
[1] = target: receptor for activated protein C kinase 1 (RACK1) (human (endogenous in Caco-2)) (UniProt P63244)
[2] = target: receptor for activated protein C kinase 1 (RACK1) (human (endogenous in Caco-2)) (UniProt P63244); remark: listed apart in the source

Substance	expression level of RACK1 in Caco-2 cells treated with rTsSPc, Western blot, increase compared to the PBS group [1]	p-ERK1/2 level in Caco-2 cells treated with rTsSPc, Western blot, increase compared to the PBS group [1]	inhibition rate of anti-RACK1 antibody on T. spiralis IIL invasion of the Caco-2 monolayer, compared to the PBS group [2]	inhibition rate of the RACK1 inhibitor HO on T. spiralis IIL invasion of the Caco-2 monolayer, compared to the PBS group [2]
recombinant Trichinella spiralis serine proteinase with GST tag (rTsSPc) (enzyme)	2.11 folds	18.3 folds		
recombinant Trichinella spiralis serine proteinase with GST tag (rTsSPc)			5.12%	7.37%
